The chains are these.
B1: LGI1 (wild type, pull-down with ADAM22/23 ECD-FLAG) [human] / ADAM22 ECD-FLAG [human] (parent complex)
chain 1: KKPAKPKCPAVCTCTKDNALCENARSIPRTVPPDVISLSFVRSGFTEISEGSFLFTPSLQLLLFTSNSFDVISDDAFIGLPHLEYLFIENNNIKSISRHTFRGLKSLIHLSLANNNLQTLPKDIFKGLDSLTNVDLRGNSFNCDCKLKWLVEWLGHTNATVEDIYCEGPPEYKKRKINSLSSKDFDCIITEFAKSQDLPYQSLSIDTFSYLNDEYVVIAQPFTGKCIFLEWDHVEKTFRNYDNITGTSTVVCKPIVIETQLYVIVAQLFGGSHIYKRDSFANKFIKIQDIEILKIRKPNDIETFKIENNWYFVVADSSKAGFTTIYKWNGNGFYSHQSLHAWYRDTDVEYLEIVRTPQTLRTPHLILSSSSQRPVIYQWNKATQLFTNQTDIPNMEDVYAVKHFSVKGDVYICLTRFIGDSKVMKWGGSSFQDIQRMPSRGSMVFQPLQINNYQYAILGSDYSFTQVYNWDAEKAKFVKFQELNVQAPRSFTHVSINKRNFLFASSFKGNTQIYKHVIVDLSA
chain 2: SKRQLRRYPRNVEEETKYIELMIVNDHLMFKKHRLSVVHTNTYAKSVVNMADLIYKDQLKTRIVLVAMETWATDNKFAISENPLITLREFMKYRRDFIKEKSDAVHLFSGSQFESSRSGAAYIGGICSLLKGGGVNEFGKTDLMAVTLAQSLAHNIGIISDKRKLASGECKCEDTWSGCIMGDTGYYLPKKFTQCNIEEYHDFLNSGGGACLFNKPSKLLDPPECGNGFIETGEECDCGTPAECVLEGAECCKKCTLTQDSQCSDGLCCKKCKFQPMGTVCREAVNDCDIRETCSGNSSQCAPNIHKMDGYSCDGVQGICFGGRCKTRDRQCKYIWGQKVTASDKYCYEKLNIEGTEKGNCGKDKDTWIQCNKRDVLCGYLLCTNIGNIPRLGELDGEITSTLVVQQGRTLNCSGGHVKLEEDVDLGYVEDGTPCGPQMMCLEHRCLPVASFNFSTCLSSKEGTICSGNGVCSNELKCVCNRHWIGSDCNTYFPHNDDAKTGITLSG
B2: LGI1 (wild type, pull-down with ADAM22/23 ECD-FLAG) [human] / ADAM23 ECD-FLAG [human] (parent complex)
chain 1: B1 chain 1
chain 2: AVNPSRGIFEEMKYLELMIVNDHKTYKKHRSSHAHTNNFAKSVVNLVDSIYKEQLNTRVVLVAVETWTEKDQIDITTNPVQMLHEFSKYRQRIKQHADAVHLISRVTFHYKRSSLSYFGGVCSRTRGVGVNEYGLPMAVAQVLSQSLAQNLGIQWEPSSRKPKCDCTESWGGCIMEETGVSHSRKFSKCSILEYRDFLQRGGGACLFNRPTKLFEPTECGNGYVEAGEECDCGFHVECYGLCCKKCSLSNGAHCSDGPCCNNTSCLFQPRGYECRDAVNECDITEYCTGDSGQCPPNLHKQDGYACNQNQGRCYNGECKTRDNQCQYIWGTKAAGSDKFCYEKLNTEGTEKGNCGKDGDRWIQCSKHDVFCGFLLCTNLTRAPRIGQLQGEIIPTSFYHQGRVIDCSGAHVVLDDDTDVGYVEDGTPCGPSMMCLDRKCLQIQALNMSSCPLDSKGKVCSGHGVCSNEATCICDFTWAGTDCSIRDPVRNLHPPKDEGPKGPSA

We go through twelve variants from PMC5906670, “Structural basis of epilepsy-related ligand–receptor complex LGI1–ADAM22” (Nature Communications, 2018).

In the first test the parent is B1. In words: pull-down; anti-FLAG antibody agarose; proteins secreted from HEK293T cells; n = 4 independent experiments; read off a plot.
In the case of chain 1 V250A, the percent of parent is ~35 % of WT.
On the same count and under the same terms, with chain 1 K297A the figure was ~64 % of WT.
For the variant chain 1 L268A, the percent of parent was ~8 % of WT.

Variants of B2 are the subject of a further test. The description is as above.
With chain 1 R344A, the percent of parent was ~6 % of WT.
On the same count and under the same terms, with chain 1 M443A the figure was ~10 % of WT; with chain 1 V250A, ~20 % of WT; with chain 1 K319A, ~7 % of WT.
Take chain 1 Y399A: the percent of parent was ~4 % of WT.
Still for that read-out and setting: with chain 1 R296A, chain 1 K297A the figure was ~9 % of WT; with chain 1 K297A, ~46 % of WT.
As to chain 1 F222A, the percent of parent was ~16 % of WT.
As for chain 1 L268A, the percent of parent was ~14 % of WT.
